The record followed here is US20110239327A1, “Nematicidal Effects of Cysteine Proteinases and Methods of Use Thereof to Treat Nematode Infestation” (priority 2007, published 2011).

One data set relates to Pratylenchus penetrans. The data set is described as follows: In vitro live/dead count of Pratylenchus penetrans. It is filed as cell-based. Set-up: concentration of papain latex that killed the nematodes: unit not given here. The procedure: Eggs of M. incognita race 1 from North Carolina State University, USA were collected from tomato-infected roots grown in a glasshouse at 23° C. in a 16:8 h light-dark regime. Eggs were extracted using 1% hypochlorite (NaClO) solution (Hussey and Barker, 1973) or by picking egg masses from tomato-infected roots. Juveniles (J2) were hatched from the eggs and egg masses in water. Heterodera glycines eggs were obtained from soil samples stored in Rothamsted-Research. Second stage juveniles (J2) were hatched from the eggs in water after 10 days. Pratylenchus penetrans were a gift from Dr. Deeren Anne-Marie from the Institute for Agricultural and Fisheries Research, Merelbeke, Belgium. The beneficial nematodes Steinernema feltiae and Heterorhabditis megidis were a gift from Dr. Paul Williams from Becker Underwood.
Control wells were set up which contained J2s and distilled water with 16 mM L-cysteine. Each enzyme concentration and the controls were set up in duplicate (i.e. n=2). […] The number of live and dead J2s per well was counted after each enzyme incubation. The same procedure was followed when setting up further experiments to compare the effects of these enzymes with Heterodera glycines J2, Pratylenchus penetrans, Steinernema feltiae and Heterorhabditis megidis.

The next data set relates to M. incognita J2. Description: In vitro assay of M. incognita J2 present in soil mixtures. In kind it is cell-based. The procedure:
The same procedure described above was used to determine the effect of the cysteine proteinases against M. incognita J2 present in soil mixtures. The following soil mixtures were used: fine and coarse sand, peat and fine/coarse sand and loam mix and fine/coarse sand. These soil mixtures were prepared at concentrations of 1:1, 1:3 and 1:6 and autoclaved at […] for 20 min. Peat and loam-mix were obtained from Rothamsted-Research. Soil mixtures were added to 24 well plates (0.5 g) and wetted for 16 hs with either PBS ph 7.2, Tx-100, Milk 5% or cysteine proteinases, in order to wet the soil and block non-specific binding sites present in the soil particles. Then, approximately 100 J2 were added to the wells, followed by cysteine proteinases with 16 mM of L-cysteine to activate the cysteine proteinases or water as control. After 16 hs at room temperature in the dark, individual wells of the 24 well plates were flushed with 1 ml of distilled water to recover the nematodes from the soil mixtures. These were placed in a 24 well plate and the number of dead/live nematodes scored under microscopic observation.
These in vitro experiments were performed in 24 well plates using sterile soil mixtures to diminish the possibility of biological degradation of the enzyme by microorganisms. […] The number of live nematodes was counted before and after enzyme treatment. […]

B1: papain (protein, UniProt P00784 134-345, looked up)
Papain: IPEYVDWRQKGAVTPVKNQGSCGSCWAFSAVVTIEGIIKIRTGNLNEYSEQELLDCDRRSYGCNGGYPWSALQLVAQYGIHYRNTYPYEGVQRYCRSREKGPYAAKTDGVRQVQPYNEGALLYSIANQPVSVVLEAAGKDFQLYRGGIFVGPCGNKVDHAVAAVGYGPNYILIKNSWGTGWGENGYIRIKRGTGNSYGVCGLYTSSFYPVKN
notes: cysteine proteinase from Carica papaya, Merops C01.001, Sigma P3125
As to B1, in the data set with Pratylenchus penetrans, the “concentration of papain latex that killed the nematodes” value came out at 62.504. The recovery of mobility entry in the data set on Pratylenchus penetrans (after 48 hs) is reported as “no recovery of mobility”. In addition, the nematode mortality with M. incognita J2 (papain latex 100 μM, 16 hours, all soil mixtures (sand; 1:3 sand/loam mix; 1:3 sand/peat)) is 40-50%. Further, in the data set with M. incognita J2 (soil with 16% organic matter wetted with 250 μM papain without L-cysteine, then 250 μM papain in 16 mM L-cysteine, 16 hs), the “state of the nematodes after two applications of papain to soil” value was “most nematodes were dead”.
